Results: US20210253727A1 (CORVUS PHARMACEUTICALS, published 2021)
Changes are numbered by the printed parent chain. Values belong to the binder of their own block, whether it stands above or below them.

Target: T1, CD73 (as used in the affinity measurements) (UniProt P21589 27-549, limits assumed)
T1 construct: also called CD73 antigen; 5'-nucleotidase
T1 sequence (looked up): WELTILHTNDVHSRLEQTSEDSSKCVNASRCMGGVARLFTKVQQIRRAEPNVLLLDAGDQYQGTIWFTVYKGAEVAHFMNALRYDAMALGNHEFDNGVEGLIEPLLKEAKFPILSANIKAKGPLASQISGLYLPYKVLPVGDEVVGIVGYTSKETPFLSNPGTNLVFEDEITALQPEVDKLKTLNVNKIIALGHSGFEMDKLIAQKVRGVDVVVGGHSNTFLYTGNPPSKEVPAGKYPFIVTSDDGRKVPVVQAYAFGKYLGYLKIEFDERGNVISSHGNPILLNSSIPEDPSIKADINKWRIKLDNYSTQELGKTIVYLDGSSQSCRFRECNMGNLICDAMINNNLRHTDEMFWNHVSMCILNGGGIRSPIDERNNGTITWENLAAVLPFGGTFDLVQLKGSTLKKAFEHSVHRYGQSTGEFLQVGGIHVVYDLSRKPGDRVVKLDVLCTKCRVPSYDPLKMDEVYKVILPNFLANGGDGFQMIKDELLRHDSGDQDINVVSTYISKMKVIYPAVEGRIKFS
Test: affinity measurement, method not stated

B2: CPX-003 (humanized 1E9 antibody, BAP094-hum03) (antibody, human IgG1, V domains shown)
VH: QVQLVQSGAEVKKPGASVKVSCKASGYTFTSYWITWVRQARGQRLEWIGDIYPGSGNTNYNEKFKTRVTITADKSTSTAYMELSSLRSEDTAVYYCAKEGGLTTEDYALDYWGQGTLVTVSS
VL: EIVLTQSPDFQSVTPKEKVTITCRASKNVSTSGYSYMHWYQQKPGKAPKLLIYLASNLESGIPPRFSGSGYGTDFTLTINNIESEDAAYYFCQHSRELPFTFGQGTKVEI
Kd: 19.5 nM

B3: CPX-004 (humanized 1E9 antibody, BAP094-hum05) (antibody, human IgG1, V domains shown)
VH: EVQLVQSGAEVKKPGATVKISCKVSGYTFTSYWITWIRQPPGKGLEWIGDIYPGSGNTNYNEKFKTRVTISADKSISTAYLQWSSLKASDTAMYYCAKEGGLTTEDYALDYWGQGTLVTVSS
VL: DVVMTQSPLSLPVTLGQPASISCRASKNVSTSGYSYMHWYQQKPGQAPRLLIYLASNLESGIPPRFSGSGYGTDFTLTINNIESEDAAYYFCQHSRELPFTFGQGTKVEIK
Kd: 17.8 nM

B5: CPX-006 (humanized 1E9 antibody; BAP094-hum06-HC with BAP094-hum07-LC) (antibody, V domains shown)
VH: B2 VH with K12E, R41P, R44G, I48M
VL: EIVLTQSPATLSLSPGERATLSCRASKNVSTSGYSYMHWYQQKPGQAPRLLIYLASNLESGIPPRFSGSGYGTDFTLTINNIESEDAAYYFCQHSRELPFTFGQGTKVEIK
notes: also called anti-CD73 (CPX-006)
Kd: 7.1 nM

B6: CPX-007 (humanized 1E9 antibody; BAP094-hum03-HC with BAP094-hum07-LC) (antibody, human IgG1, V domains shown)
VH: B2 VH
VL: B5 VL
Kd: 15.9 nM

Second part, the binder after the results:

Kd: 9.4 nM
B1: CPX-002 (chimeric 1E9 antibody, clone BAP094-01) (antibody, human IgG1, V domains shown)
VH: QVQLQQPGAELVKPGASVKMSCKASGYTFTSYWITWVKQRPGQGLEWIGDIYPGSGNTNYNEKFKTKATLTVDTSSSTAYMQLSSLTSEDSAVYYCAKEGGLTTEDYALDYWGQGTLVTVSS
VL: DIVLTQSPASLAVSLGQRATISCRASKNVSTSGYSYMHWYQQKPGQPPKLLIYLASNLESGVPTRFSGSGSGTDFTLNIHPVEEEDAATYYCQHSRELPFTFGSGTKLEIK
notes: also called chimeric antibody

Kd: 6.9 nM
B4: CPX-005 (humanized 1E9 antibody, BAP094-hum06) (antibody, human IgG1, V domains shown)
VH: B2 VH with K12E, R41P, R44G, I48M
VL: AIQLTQSPSSLSASVGDRVTITCRASKNVSTSGYSYMHWYQQKPGQAPRLLIYLASNLESGVPSRFSGSGSGTDFTFTISSLEAEDAATYYCQHSRELPFTFGQGTKVEIK
